# Tests used:
# [1] = target: tBCMA [BCMA extracellular domain - PDL1 hinge & TM plus Trop2 cytoplasmic domain]; experiment: cell-based or functional assay
# [2] = target: CD30 expressed on primary T cells transduced with BCL6 and BCL2L1 (Homo sapiens (Human)) (UniProt P28908); experiment: cell-based or functional assay
# Chain of CD30 expressed on primary T cells transduced with BCL6 and BCL2L1 (Homo sapiens (Human)) (P28908 19-595 limits assumed): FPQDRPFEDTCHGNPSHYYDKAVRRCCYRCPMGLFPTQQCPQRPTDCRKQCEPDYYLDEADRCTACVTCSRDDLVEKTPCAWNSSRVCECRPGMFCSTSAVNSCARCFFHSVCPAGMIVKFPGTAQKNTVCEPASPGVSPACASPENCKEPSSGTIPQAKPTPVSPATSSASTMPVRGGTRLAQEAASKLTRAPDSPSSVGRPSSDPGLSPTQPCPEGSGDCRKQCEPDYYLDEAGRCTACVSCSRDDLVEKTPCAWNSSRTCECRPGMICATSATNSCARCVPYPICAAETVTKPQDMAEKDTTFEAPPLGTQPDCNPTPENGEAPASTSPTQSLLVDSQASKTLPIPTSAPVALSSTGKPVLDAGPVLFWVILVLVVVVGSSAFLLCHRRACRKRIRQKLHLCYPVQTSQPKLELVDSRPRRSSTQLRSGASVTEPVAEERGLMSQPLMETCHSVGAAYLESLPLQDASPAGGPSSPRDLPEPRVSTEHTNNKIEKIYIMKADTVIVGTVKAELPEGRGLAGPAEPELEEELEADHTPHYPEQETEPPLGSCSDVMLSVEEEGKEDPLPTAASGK
# Chain of tBCMA [BCMA extracellular domain - PDL1 hinge & TM plus Trop2 cytoplasmic domain] (chain, as listed by the source limits assumed, form in doubt): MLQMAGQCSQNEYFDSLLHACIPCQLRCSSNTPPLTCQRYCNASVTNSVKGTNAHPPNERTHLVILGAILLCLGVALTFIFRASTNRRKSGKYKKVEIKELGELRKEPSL
percent change in live cell number (day 2) [1],percent change in live cell number [2],Substance
< 80%,,belantamab mafodotin (antibody)
,< 95%,brentuximab vedotin (antibody)

# Source: patent US20240254192A1
